Reference: patent US9708375 (Amgen, dated 2017)
Changes are numbered by the printed parent chain. In names and notes the source's numbering stands.

What was measured:
[1] = molecular target: T1, biotin labeled human recombinant Sclerostin (human, UniProt Q9BQB4 24-213); assay: AlphaScreen Sclerostin/LRP-6 inhibition
T1 construct: also called human Sclerostin; huSOST
T1 sequence (looked up): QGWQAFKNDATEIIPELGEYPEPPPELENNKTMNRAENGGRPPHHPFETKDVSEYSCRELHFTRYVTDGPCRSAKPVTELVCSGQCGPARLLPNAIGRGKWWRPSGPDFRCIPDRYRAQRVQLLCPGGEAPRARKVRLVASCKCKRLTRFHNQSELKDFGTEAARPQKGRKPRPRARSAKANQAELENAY

[2] = molecular target: T2, human recombinant Dkk-1 (human, UniProt O94907 32-266); assay: AlphaScreen Dkk-1/LRP-6 inhibition
T2 construct: also called human Dkk-1; human Dkk1
T2 sequence (looked up): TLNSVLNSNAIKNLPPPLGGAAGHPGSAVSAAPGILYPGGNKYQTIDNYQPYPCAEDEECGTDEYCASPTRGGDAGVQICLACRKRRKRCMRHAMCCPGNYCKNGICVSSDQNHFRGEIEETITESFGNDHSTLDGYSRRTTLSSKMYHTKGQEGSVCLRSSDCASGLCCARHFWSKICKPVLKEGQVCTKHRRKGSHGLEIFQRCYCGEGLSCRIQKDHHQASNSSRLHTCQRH

B1: P7656 (bispecific antibody, human IgG2, lambda)
heavy: QVQLVESGGGVVQPGRSLRLSCAASGFTFSRYDMHWVRQAPGKGLEWVAIIFYDGSNKYYADPVKGRFTISRDNSKNTLYLQMNSLRAEDTAVYYCATLAAAFDYWGQGTLVTVSSASTKGPSVFPLAPCSRSTSESTAALGCLVKDYFPEPVTVSWNSGALTSGVHTFPAVLQSSGLYSLSSVVTVPSSNFGTQTYTCNVDHKPSNTKVDKTVERKCCVECPPCPAPPVAGPSVFLFPPKPKDTLMISRTPEVTCVVVDVSHEDPEVQFNWYVDGVEVHNAKTKPREEQFNSTFRVVSVLTVVHQDWLNGKEYKCKVSNKGLPAPIEKTISKTKGQPREPQVYTLPPSREEMTKNQVSLTCLVKGFYPSDIAVEWESNGQPENNYKTTPPMLDSDGSFFLYSKLTVDKSRWQQGNVFSCSVMHEALHNHYTQKSLSLSPGKSSGGSCAPNQFRCNSYDKCVPAHWVCDGVLDCLDSSDETNCGGGGSGGGGSCPAYTEFLCKDSDRCFPSEWRCDGEMDCVDGSDELHC
light: YVLTQPPSVSVAPGQTARITCGGNNIGSKSVHWYQQKPGQAPVLVVYDDSDRPSEIPERFSGSNSGNTATLTISRVEAGDEADYYCQVWDSSSDHVVFGGGTRLTVLGQPKAAPSVTLFPPSSEELQANKATLVCLISDFYPGAVTVAWKADSSPVKAGVETTTPSKQSNNKYAASSYLSLTPEQWKSHRSYSCQVTHEGSTVEKTVAPTECS
notes: also called C140166
**Q.** Does B1 bind [1]?
**A.** binds

B2: P7069 (bispecific antibody, human IgG2, lambda)
heavy: QVQLVESGGGVVQPGRSLRLSCAASGFTFSRYDMHWVRQAPGKGLEWVAIIFYDGSNKYYADPVKGRFTISRDNSKNTLYLQMNSLRAEDTAVYYCATLAAAFDYWGQGTLVTVSSASTKGPSVFPLAPCSRSTSESTAALGCLVKDYFPEPVTVSWNSGALTSGVHTFPAVLQSSGLYSLSSVVTVPSSNFGTQTYTCNVDHKPSNTKVDKTVERKCCVECPPCPAPPVAGPSVFLFPPKPKDTLMISRTPEVTCVVVDVSHEDPEVQFNWYVDGVEVHNAKTKPREEQFNSTFRVVSVLTVVHQDWLNGKEYKCKVSNKGLPAPIEKTISKTKGQPREPQVYTLPPSREEMTKNQVSLTCLVKGFYPSDIAVEWESNGQPENNYKTTPPMLDSDGSFFLYSKLTVDKSRWQQGNVFSCSVMHEALHNHYTQKSLSLSPGKSSGGSCPAYTEFLCKDSDRCFPSEWRCDGEMDCVDGSDELHCAYHTCAPNQFRCNSYDKCVPAHWVCDGVLDCLDSSDETNCSAPASEPPGSLSLQ
light: B1 light
notes: also called P6991; Ab-Avimer-2 (P7069A)
**Q.** Does B2 bind [1]?
**A.** binds

B3: P7078 (bispecific antibody, human IgG2, lambda)
heavy: SGGSWCPPNHFMCNSYDKCVPAHWFCDGVLDCLDSSDETNCSAPASEPPGSLCPAYTEFLCKDSDRCFPSEWRCDGEMDCVDGSDELHCAYHTSQVQLVESGGGVVQPGRSLRLSCAASGFTFSRYDMHWVRQAPGKGLEWVAIIFYDGSNKYYADPVKGRFTISRDNSKNTLYLQMNSLRAEDTAVYYCATLAAAFDYWGQGTLVTVSSASTKGPSVFPLAPCSRSTSESTAALGCLVKDYFPEPVTVSWNSGALTSGVHTFPAVLQSSGLYSLSSVVTVPSSNFGTQTYTCNVDHKPSNTKVDKTVERKCCVECPPCPAPPVAGPSVFLFPPKPKDTLMISRTPEVTCVVVDVSHEDPEVQFNWYVDGVEVHNAKTKPREEQFNSTFRVVSVLTVVHQDWLNGKEYKCKVSNKGLPAPIEKTISKTKGQPREPQVYTLPPSREEMTKNQVSLTCLVKGFYPSDIAVEWESNGQPENNYKTTPPMLDSDGSFFLYSKLTVDKSRWQQGNVFSCSVMHEALHNHYTQKSLSLSPGK
light: B1 light
notes: also called P6886; Ab-Avimer-5 (P7078A)
**Q.** Does B3 bind [1]?
**A.** binds

B4: P7070 (bispecific antibody, human IgG2, lambda)
heavy: QVQLVESGGGVVQPGRSLRLSCAASGFTFSRYDMHWVRQAPGKGLEWVAIIFYDGSNKYYADPVKGRFTISRDNSKNTLYLQMNSLRAEDTAVYYCATLAAAFDYWGQGTLVTVSSASTKGPSVFPLAPCSRSTSESTAALGCLVKDYFPEPVTVSWNSGALTSGVHTFPAVLQSSGLYSLSSVVTVPSSNFGTQTYTCNVDHKPSNTKVDKTVERKCCVECPPCPAPPVAGPSVFLFPPKPKDTLMISRTPEVTCVVVDVSHEDPEVQFNWYVDGVEVHNAKTKPREEQFNSTFRVVSVLTVVHQDWLNGKEYKCKVSNKGLPAPIEKTISKTKGQPREPQVYTLPPSREEMTKNQVSLTCLVKGFYPSDIAVEWESNGQPENNYKTTPPMLDSDGSFFLYSKLTVDKSRWQQGNVFSCSVMHEALHNHYTQKSLSLSPGKSSGGSWCPPNHFMCNSYDKCVPAHWFCDGVLDCLDSSDETNCSAPASEPPGSLCPAYTEFLCKDSDRCFPSEWRCDGEMDCVDGSDELHCAYHTSLQ
light: B1 light
notes: also called P6992; Ab-Avimer-3 (P7070A)
**Q.** Does B4 bind [1]?
**A.** binds

B5: P7649 (bispecific antibody, human IgG2, lambda)
heavy: QVQLVESGGGVVQPGRSLRLSCAASGFTFSRYDMHWVRQAPGKGLEWVAIIFYDGSNKYYADPVKGRFTISRDNSKNTLYLQMNSLRAEDTAVYYCATLAAAFDYWGQGTLVTVSSASTKGPSVFPLAPCSRSTSESTAALGCLVKDYFPEPVTVSWNSGALTSGVHTFPAVLQSSGLYSLSSVVTVPSSNFGTQTYTCNVDHKPSNTKVDKTVERKCCVECPPCPAPPVAGPSVFLFPPKPKDTLMISRTPEVTCVVVDVSHEDPEVQFNWYVDGVEVHNAKTKPREEQFNSTFRVVSVLTVVHQDWLNGKEYKCKVSNKGLPAPIEKTISKTKGQPREPQVYTLPPSREEMTKNQVSLTCLVKGFYPSDIAVEWESNGQPENNYKTTPPMLDSDGSFFLYSKLTVDKSRWQQGNVFSCSVMHEALHNHYTQKSLSLSPGSSGGSCAPNQFRCNSYDKCVPAHWVCDGVLDCLDSSDETNCSAPASEPPGSLCPAYTEFLCKDSDRCFPSEWRCDGEMDCVDGSDELHCAYHTSLQ
light: B1 light
notes: also called C140159
**Q.** Does B5 bind [1]?
**A.** binds

B6: P7650 (bispecific antibody, human IgG2, lambda)
heavy: B5 heavy with A448G, P449R, N450D, Q451H, N455R, V466L, N481Y
light: B1 light
notes: also called C140160
**Q.** Does B6 bind [1]?
**A.** binds

**Q.** Does CPASYFQCRNNNHCYPMEWRCDGFQDCEDGSDEKGCPYRT (designed binder) [C4229] bind [2]?
**A.** binds

**Q.** Does CPSNEFMCADKMCFPLIFLCDGENDCEDGSDEVDCPSRT (designed binder) [C4234] bind [2]?
**A.** binds
